Laboratory results taken from US20240182911A1 (University of California, published 2024).
Changes are numbered by the printed parent chain. Read-outs that look alike come from different tables or passages of the source.

Assays:
[1] = target: T1, receptor-binding domain (RBD) of the SARS-COV-2 spike (S) protein (SARS-COV-2, UniProt P0DTC2 319-541); test: SPR kinetic
[2] = target: T1, receptor-binding domain (RBD) of the …; test: SPR kinetic; remark: listed apart in the source
[3] = target: T1, receptor-binding domain (RBD) of the …; test: SPR equilibrium
[4] = target: T1, receptor-binding domain (RBD) of the …; test: On-yeast EC50
[5] = target: T1, receptor-binding domain (RBD) of the …; test: SPR kinetic; remark: listed apart in the source
[6] = target: T1, receptor-binding domain (RBD) of the …; test: monovalent affinity, assay not named
[7] = target: T1, receptor-binding domain (RBD) of the …; test: SPR equilibrium; remark: listed apart in the source
[8] = target: T1, receptor-binding domain (RBD) of the …; test: SPR equilibrium; affinity measurement note: Saturation not reached
[9] = target: T1, receptor-binding domain (RBD) of the …; test: SPR equilibrium; remark: listed apart in the source

B1: RBD6i10 (VHH)
VHH: QVQLQESGGGLVQAGGSLRLNCAASGSISTTYLMGWYRQAPGKERKFVATINRGGSTYYAVSVKGRFTISRDNAKNTVYLQMNSLKPEDTAVYYCAVGWPDPDYGLAYHRYWGQGTQVTVNS
- Kd [1]: 597 nM
- koff [1]: 0.00568 s⁻¹
- kon [1]: 9500 M⁻¹ s⁻¹

B2: RBD6 (VHH)
VHH: B1 VHH with N21S, K46E, V61D, N121S
- Kd [2]: 990 nM
- koff [2]: 0.00892 s⁻¹
- kon [2]: 9010 M⁻¹ s⁻¹

B3: RBD6i13 (VHH)
VHH: B1 VHH with D103G
- Kd [3]: 558 nM

B4: RBD6id (VHH)
VHH: B1 VHH with S25N, K46E, V61I, N121S
- Kd [1]: 263 nM
- koff [1]: 0.00271 s⁻¹
- kon [1]: 10300 M⁻¹ s⁻¹

B5: RBD8 (VHH)
VHH: QVQLQESGGGLVQAGGSLRLSCAASGTIFGGPWMGWYRQAPGKEREFVAAIARGGNTNYADSVKGRFTISRDNAKNTVYLQMNSLKPEDTAVYYCAARDAVYPYLKYWGQGTQVTVSS
- EC50 [4]: 80.8 nM

B6: RBD8i1 (VHH)
VHH: B5 VHH with F29S
- EC50 [4]: 35.4 nM

B7: RBD9 (VHH)
VHH: QVQLQESGGGLVQAGGSLRLSCAASGYIFYSRRMGWYRQAPGKEREFVATIGHGTSTYYADSVKGRFTISRDNAKNTVYLQMNSLKPEDTAVYYCAALPRPHGAGTADARYNLWYWGQGTQVTVSS
- EC50 [4]: 131 nM

B8: RBD9i10 (VHH)
VHH: B7 VHH with T55A, D61G, N83D
- EC50 [4]: 15.2 nM

B9: RBD1i1 (VHH)
VHH: QVQLQESGGGLVQAGGSLRLSCAASGTISYENFMGWYRQAPGKERKLVAGINDGTNTYYADSVKGRFTISRDNAKNTVYLQMNSLKPEDTAVYYCAVIGASVLGHAYWGQGTQVTVSS
- Kd [2]: 48.1 nM
- koff [2]: 0.0023 s⁻¹
- kon [2]: 47700 M⁻¹ s⁻¹

B10: RBD1 (VHH)
VHH: B9 VHH with K46E, A100T
- Kd [2]: 1400 nM
- koff [2]: 0.0221 s⁻¹
- kon [2]: 15800 M⁻¹ s⁻¹

B11: RBD1i13 (VHH)
VHH: B9 VHH with E44G, K86E
- Kd [2]: 32.2 nM
- koff [2]: 0.00216 s⁻¹
- kon [2]: 67200 M⁻¹ s⁻¹

B12: RBD7i12 (VHH)
VHH: QVQLQESGGGLVQAGGSLRLSCAASGYISGAYYMGWYRQAPGKEREFVAGIGGGSTNYADSVKGRFTISRDNAKNTVYLQMNSLKPEDTAVYYCAVYQSVAYYCRGYFSYWGQGTQVTVSS
- Kd [3]: 2590 nM

B13: RBD7i13 (VHH)
VHH: B12 VHH with E46K
- Kd [3]: 659 nM

B14: RBD7 (VHH)
VHH: B12 VHH with C104Y
- Kd [3]: 2210 nM

B15: RBD10i10 (VHH)
VHH: QVQLQESGGGLVQAGGSLRLSCAASGTIFQVGSMGWYRQAPGKGRKFVATIADGGSTNYAGSVKGRFTISRDNAKNTVYLQMNSLKPEDTAVYYCAALGQVSEYNSASYEWTYPYWGQGTQVTVSS
- Kd [5]: 2.14 nM
- kon [5]: 154000 M⁻¹ s⁻¹

B16: RBD10 (VHH)
VHH: B15 VHH with G44E, K46E, G55S, G61D
- Kd [5]: 417 nM
- koff [5]: 0.00552 s⁻¹
- kon [5]: 13200 M⁻¹ s⁻¹

B17: RBD10i14 (VHH)
VHH: B15 VHH with M34V, G55S
- Kd [6]: 0.72 nM
- koff [5]: 0.000118 s⁻¹
- kon [5]: 167000 M⁻¹ s⁻¹

B18: RBD3i2 (VHH)
VHH: QAQLQESGGGLVQAGGSLRLSCAASGNISDFRFMGWYRQAPGKERELVAAIGRGSNTRYADSVKGRFTISRDNAKNTVYLQMNSLKPEDTAVYYCAARNATYPYYVYWGQGTQVTVSS
- Kd [7]: 128 nM

B19: RBD3 (VHH)
VHH: B18 VHH with A2V, R58Y
- Kd [8]: 6000 nM

B20: RBD3i17 (VHH)
VHH: B18 VHH with Y59C
- Kd [7]: 230 nM

B21: RBD11 (VHH)
VHH: QVQLQESGGGLVQAGGSLRLSCAASGNIFAKVWMGWYRQAPGKEREFVASIANGATTYYADSVKGRFTISRDNAKNTVYLQMNSLKPEDTAVYYCAARNWSGLGHFYWGQGTQVTVSS
- Kd [9]: 2420 nM

B22: RBD11i12 (VHH)
VHH: B21 VHH with E44G, H105Y, G109S
- Kd [9]: 316 nM
